From paper PMC3483405

Target: Homo sapiens selenoprotein S U188C (human) (UniProt Q9BQE4)
Test: SEC

Substance: Homo sapiens selenoprotein S U188C (from UniProt Q9BQE4 1-189) (natural protein)
- stoichiometry N: 2
